Source: US20250320258

System: NSP1 (SARS-CoV-2)

18S rRNA
binding signal (fold enrichment): > 5
